Paper PMC8024308, “Epitope-directed monoclonal antibody production using a mixed antigen cocktail facilitates antibody characterization and validation” (Communications Biology, 2021)

Target: the molecule itself
Experiment: ELISA; two-site sandwich ELISA with the same mAb (30D12 or 4F2) as coated capture (5 ug/ml) and as biotinylated detector (1 ug/ml); recombinant hANKRD1 at 20 ng/ml; self-pairing read as dimer

B1: recombinant human ankyrin repeat domain 1 (hANKRD1; OriGene Technologies) (natural protein)
chain: not shown
notes: human ankyrin repeat domain 1 (ANKRD1), full-length recombinant protein, N-terminal His-tagged, OriGene Technologies; expected mass 43 kDa; The preparation holds monomer (43 kDa) and dimer (86 kDa) on non-reducing SDS-PAGE; also called recombinant hANKRD1; source: bought: OriGene Technologies (bacterially derived recombinant preparation)
binding result: binds
